Assay results reported in patent publication US20240409663A1 (CONCEPT TO MEDICINE BIOTECH, published 2024).

How the values were obtained:
human GPC3 on cells [1] = molecular target: T1, human GPC3 on cells (human, UniProt P51654 25-554); assay: FACS, HEPG2 cells
T1 construct: whole, on cells; over-expressed on CHOK1 cells or endogenous on HEPG2, Hep3B and Huh-7 hepatocellular carcinoma cells; the cell line is named under assay; also called GPC3-CHOK1 cells; human GPC3 over-expressed CHOK1 cells
Protocol: (§1) Cell-based binding: FACS was used to evaluate the binding activity of 52H5D3B8 chimeric mAbs with comparison to a known GPC3 antibody GC33 (Chugai Pharmaceutical) on human GPC3 over-expressed CHOK1 cells, HEPG2 cells, Hep3B cells and Huh-7 cells.
(§2) Briefly, GPC3-CHOK1 cells, HEPG2 cells, Hep3B cells or Huh-7 cells were firstly incubated with Fc blocking reagent at 4° C. for 15 mins. Cells were washed by FACS buffer and divided to each well with 3-fold serially diluted 52H5D3B8 chimeric mAbs or GC33 mAb starting at 30 μg/mL at 4° C. for 60 mins. Cells were washed by FACS buffer and fixed with 2% PFA at RT for 15 mins. […] Samples were washed twice with FACS buffer.

human GPC3 on cells [2] = molecular target: T1, human GPC3 on cells; assay: FACS, Hep3B cells
Protocol: as §1, §2

human GPC3 on cells [3] = molecular target: T1, human GPC3 on cells; assay: FACS, Huh-7 cells
Protocol: as §1, §2

human GPC3 on cells [4] = molecular target: T1, human GPC3 on cells; assay: FACS, Hep3B cells; remark: listed apart in the source
Protocol: (§3) Cell-based binding: FACS was used to evaluate the binding activity of 52H5D3B8, 52H5D3B8-6 # chimeric mAbs and GC33 antibody on human GPC3 over-expressed CHOK1 cells, Hep3B cells and Huh-7 cells.
as §2, with “GPC3-CHOK1” for “GPC3-CHOK1 cells, HEPG2”, “diluted 52H5D3B8, 52H5D3B8-6 #” for “diluted 52H5D3B8”, “GC33 antibody” for “GC33 mAb”

human GPC3 on cells [5] = molecular target: T1, human GPC3 on cells; assay: FACS, Huh-7 cells; remark: listed apart in the source
Protocol: as §3
as §2, with “GPC3-CHOK1” for “GPC3-CHOK1 cells, HEPG2”, “diluted 52H5D3B8, 52H5D3B8-6 #” for “diluted 52H5D3B8”, “GC33 antibody” for “GC33 mAb”

human GPC3 on cells [6] = molecular target: T1, human GPC3 on cells; assay: FACS, Huh-7 cells; remark: listed apart in the source
Protocol: (§4) To evaluate the antigen binding property, the humanized antibodies were analyzed for their binding to human GPC3 over-expressed CHOK1 cells and Huh-7 cells by FACS. Briefly, GPC3-CHOK1 cells and Huh-7 cells were firstly incubated with Fc blocking reagent at 4° C. for 15 mins. Cells were washed by FACS buffer and divided to each well with 4-fold serially diluted humanized antibodies starting at 10 μg/mL at 4° C. for 60 mins. Cells were washed by FACS buffer and fixed with 2% PFA at RT for 15 mins. […] As different plates might affect the EC50 of 52H5D3B8-VH+VL, the 12 humanized antibodies were separated into two plates.

human GPC3 on cells [7] = molecular target: T1, human GPC3 on cells; assay: FACS, GPC3-CHOK1 cells
Protocol: as §1, §2

human GPC3 on cells [8] = molecular target: T1, human GPC3 on cells; assay: FACS, GPC3-CHOK1 cells; remark: listed apart in the source
Outline: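 After Fc blocking (4 °C, 15 min), GPC3-CHOK1 cells were incubated for 60 min at 4 °C with 3-fold serially diluted chimeric mAbs starting at 30 μg/mL. Cells then washed and fixed in 2% PFA at room temperature for 15 min.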

human GPC3 on cells [9] = molecular target: T1, human GPC3 on cells; assay: FACS, GPC3-CHOK1 cells; remark: listed apart in the source
Protocol: as §3
as §2, with “GPC3-CHOK1” for “GPC3-CHOK1 cells, HEPG2”, “diluted 52H5D3B8, 52H5D3B8-6 #” for “diluted 52H5D3B8”, “GC33 antibody” for “GC33 mAb”

human GPC3 on cells [10] = molecular target: T1, human GPC3 on cells; assay: FACS, GPC3-CHOK1 cells; remark: listed apart in the source
Protocol: as §4

human GPC3 on cells [11] = molecular target: T1, human GPC3 on cells; assay: FACS, GPC3-CHOK1 cells; remark: listed apart in the source
Protocol: as §4

[12] = molecular target: T2, human GPC3 protein (ELISA coat) (human, UniProt P51654 25-559, limits assumed); assay: ELISA, coated human GPC3
T2 construct: protein coated on plates in the cross species ELISA
Protocol: ELISA testing was carried out to evaluate the binding of chimeric antibodies to human, mouse and cynomolgus GPC3, respectively.
Briefly, microtiter plates were coated with human, mouse and cynomolgus GPC3 proteins at 1 μg/ml in PBS, 100 μl/well at 4° C. overnight, then blocked with 150 μl/well of 1% BSA. Three-fold dilutions of chimeric antibodies starting from 9 μg/ml were added to each well and incubated for 1 hour at 37° C. The plates were washed with PBS/Tween and then incubate with mouse-anti-human IgG Fc antibody conjugated with Horse Radish Peroxidase (HRP) for 30 mins at 37° C. After washing, the plates were developed with TMB substrate and analyzed by spectrophotometer at OD 450 nm. The 52H5D3B8 antibody bound to human, cynomolgus GPC3 and mouse GPC3 (FIG. 3 and Table 4).

[13] = molecular target: T3, human GPC3-his tag protein (human, UniProt P51654 25-559, limits assumed); assay: SPR Biacore 8K, mAb captured on CM5, GPC3-his dilution series
T3 construct: recombinant soluble antigen used as analyte in all Biacore runs; also called recombinant GPC3 protein; rhGPC3-His; not shown: His tag
Protocol: The binding of the chimeric 52H5D3B8 mAb to human GPC3-his was tested with Biacore using a capture method. The 52H5D3B8 mAb was captured using CM5 sensor chip. A serial dilution of human GPC3-his tag protein was injected over captured antibody for 2 mins at a flow rate of 30 μl/min. The antigen was allowed to dissociate for 360 s. All the experiments were carried out on a Biacore 8K. Data analysis was carried out using Biacore 8K evaluation software.

B1: 52H5D3B8 chimeric mAb (antibody, V domains shown)
VH: QVQLQQSGAELVRPGASVKLSCKALGYTFTDYEMHWVKQTPVHGLEWIGAIHPGSGGTAYNQKFKGKATLTADKFSSTGYMELSSLTSEDSAVYYCTRFYSYAYWGQGTLVTVSA
VL: DVVMTQTPLSLPVSLGDQASISCRSSQSLVHSNGNTYLQWYLQKPGQSPKLLIYKVSNRFSGVPDRFSGSGSGTDFILKISRVEAEDLGVYFCSQSIHVPYTFGGGTKLEIK
notes: also called 52H5D3B8-VH+VL; chimeric 52H5D3B8 mAb
EC50 (human GPC3 on cells [1]): 0.111 µg/mL
EC50 (human GPC3 on cells [2]): 0.192 µg/mL
EC50 (human GPC3 on cells [3]): 0.0986 µg/mL
EC50 (human GPC3 on cells [4]): 0.217 µg/mL
EC50 (human GPC3 on cells [5]): 0.0795 µg/mL
EC50 (human GPC3 on cells [6]): 0.0563 µg/mL
EC50 (human GPC3 on cells [7]): 0.0922 µg/mL
EC50 (human GPC3 on cells [8]): 0.0705 µg/mL
EC50 (human GPC3 on cells [9]): 0.07 µg/mL
EC50 (human GPC3 on cells [10]): 0.0477 µg/mL
EC50 (human GPC3 on cells [11]): 0.0479 µg/mL
EC50 [12]: 0.017 µg/mL
Kd [13]: 0.843 nM
koff [13]: 0.000466 s⁻¹
kon [13]: 552000 M⁻¹ s⁻¹
